Results reported in article PMC11079029, “Intramolecular autoinhibition regulates the selectivity of PRPF40A tandem WW domains for proline-rich motifs” (Nature Communications, 2024).

B1: DDX20 (protein, UniProt Q9UHI6 1-824, looked up)
Probable ATP-dependent RNA …: MAAAFEASGALAAVATAMPAEHVAVQVPAPEPTPGPVRILRTAQDLSSPRTRTGDVLLAEPADFESLLLSRPVLEGLRAAGFERPSPVQLKAIPLGRCGLDLIVQAKSGTGKTCVFSTIALDSLVLENLSTQILILAPTREIAVQIHSVITAIGIKMEGLECHVFIGGTPLSQDKTRLKKCHIAVGSPGRIKQLIELDYLNPGSIRLFILDEADKLLEEGSFQEQINWIYSSLPASKQMLAVSATYPEFLANALTKYMRDPTFVRLNSSDPSLIGLKQYYKVVNSYPLAHKVFEEKTQHLQELFSRIPFNQALVFSNLHSRAQHLADILSSKGFPAECISGNMNQNQRLDAMAKLKHFHCRVLISTDLTSRGIDAEKVNLVVNLDVPLDWETYMHRIGRAGRFGTLGLTVTYCCRGEEENMMMRIAQKCNINLLPLPDPIPSGLMEECVDWDVEVKAAVHTYGIASVPNQPLKKQIQKIERTLQIQKAHGDHMASSRNNSVSGLSVKSKNNTKQKLPVKSHSECGIIEKATSPKELGCDRQSEEQMKNSVQTPVENSTNSQHQVKEALPVSLPQIPCLSSFKIHQPYTLTFAELVEDYEHYIKEGLEKPVEIIRHYTGPGDQTVNPQNGFVRNKVIEQRVPVLASSSQSGDSESDSDSYSSRTSSQSKGNKSYLEGSSDNQLKDSESTPVDDRISLEQPPNGSDTPNPEKYQESPGIQMKTRLKEGASQRAKQSRRNLPRRSSFRLQTEAQEDDWYDCHREIRLSFSDTYQDYEEYWRAYYRAWQEYYAAASHSYYWNAQRHPSWMAAYHMNTIYLQEMMHSNQ
B2: MEPCE (protein, UniProt Q7L2J0 1-689, looked up)
7SK snRNA methylphosphate …: MIEMAAEKEPFLVPAPPPPLKDESGGGGGPTVPPHQEAASGELRGGTERGPGRCAPSAGSPAAAVGRESPGAAATSSSGPQAQQHRGGGPQAQSHGEARLSDPPGRAAPPDVGEERRGGGGTELGPPAPPRPRNGYQPHRPPGGGGGKRRNSCNVGGGGGGFKHPAFKRRRRVNSDCDSVLPSNFLLGGNIFDPLNLNSLLDEEVSRTLNAETPKSSPLPAKGRDPVEILIPKDITDPLSLNTCTDEGHVVLASPLKTGRKRHRHRGQHHQQQQAAGGSESHPVPPTAPLTPLLHGEGASQQPRHRGQNRDAPQPYELNTAINCRDEVVSPLPSALQGPSGSLSAPPAASVISAPPSSSSRHRKRRRTSSKSEAGARGGGQGSKEKGRGSWGGRHHHHHPLPAAGFKKQQRKFQYGNYCKYYGYRNPSCEDGRLRVLKPEWFRGRDVLDLGCNVGHLTLSIACKWGPSRMVGLDIDSRLIHSARQNIRHYLSEELRLPPQTLEGDPGAEGEEGTTTVRKRSCFPASLTASRGPIAAPQVPLDGADTSVFPNNVVFVTGNYVLDRDDLVEAQTPEYDVVLCLSLTKWVHLNWGDEGLKRMFRRIYRHLRPGGILVLEPQPWSSYGKRKTLTETIYKNYYRIQLKPEQFSSYLTSPDVGFSSYELVATPHNTSKGFQRPVYLFHKARSPSH
B3: ATXN10 (protein, UniProt Q9UBB4 1-475, looked up)
Ataxin-10: MAAPRPPPARLSGVMVPAPIQDLEALRALTALFKEQRNRETAPRTIFQRVLDILKKSSHAVELACRDPSQVENLASSLQLITECFRCLRNACIECSVNQNSIRNLDTIGVAVDLILLFRELRVEQESLLTAFRCGLQFLGNIASRNEDSQSIVWVHAFPELFLSCLNHPDKKIVAYSSMILFTSLNHERMKELEENLNIAIDVIDAYQKHPESEWPFLIITDLFLKSPELVQAMFPKLNNQERVTLLDLMIAKITSDEPLTKDDIPVFLRHAELIASTFVDQCKTVLKLASEEPPDDEEALATIRLLDVLCEMTVNTELLGYLQVFPGLLERVIDLLRVIHVAGKETTNIFSNCGCVRAEGDISNVANGFKSHLIRLIGNLCYKNKDNQDKVNELDGIPLILDNCNISDSNPFLTQWVIYAIRNLTEDNSQNQDLIAKMEEQGLADASLLKKVGFEVEKKGEKLILKSTRDTPKP
B4: HNRNPUL1 (protein, UniProt Q9BUJ2 1-856, looked up)
Heterogeneous nuclear …: MDVRRLKVNELREELQRRGLDTRGLKAELAERLQAALEAEEPDDERELDADDEPGRPGHINEEVETEGGSELEGTAQPPPPGLQPHAEPGGYSGPDGHYAMDNITRQNQFYDTQVIKQENESGYERRPLEMEQQQAYRPEMKTEMKQGAPTSFLPPEASQLKPDRQQFQSRKRPYEENRGRGYFEHREDRRGRSPQPPAEEDEDDFDDTLVAIDTYNCDLHFKVARDRSSGYPLTIEGFAYLWSGARASYGVRRGRVCFEMKINEEISVKHLPSTEPDPHVVRIGWSLDSCSTQLGEEPFSYGYGGTGKKSTNSRFENYGDKFAENDVIGCFADFECGNDVELSFTKNGKWMGIAFRIQKEALGGQALYPHVLVKNCAVEFNFGQRAEPYCSVLPGFTFIQHLPLSERIRGTVGPKSKAECEILMMVGLPAAGKTTWAIKHAASNPSKKYNILGTNAIMDKMRVMGLRRQRNYAGRWDVLIQQATQCLNRLIQIAARKKRNYILDQTNVYGSAQRRKMRPFEGFQRKAIVICPTDEDLKDRTIKRTDEEGKDVPDHAVLEMKANFTLPDVGDFLDEVLFIELQREEADKLVRQYNEEGRKAGPPPEKRFDNRGGGGFRGRGGGGGFQRYENRGPPGGNRGGFQNRGGGSGGGGNYRGGFNRSGGGGYSQNRWGNNNRDNNNSNNRGSYNRAPQQQPPPQQPPPPQPPPQQPPPPPSYSPARNPPGASTYNKNSNIPGSSANTSTPTVSSYSPPQPSYSQPPYNQGGYSQGYTAPPPPPPPPPAYNYGSYGGYNPAPYTPPPPPTAQTYPQPSYNQYQQYAQQWNQYYQNQGQWPPYYGNYDYGSYSGNTQGGTSTQ
B5: SF3B1 (protein, UniProt O75533 1-1304, looked up)
Splicing factor 3B subunit 1: MAKIAKTHEDIEAQIREIQGKKAALDEAQGVGLDSTGYYDQEIYGGSDSRFAGYVTSIAATELEDDDDDYSSSTSLLGQKKPGYHAPVALLNDIPQSTEQYDPFAEHRPPKIADREDEYKKHRRTMIISPERLDPFADGGKTPDPKMNARTYMDVMREQHLTKEEREIRQQLAEKAKAGELKVVNGAAASQPPSKRKRRWDQTADQTPGATPKKLSSWDQAETPGHTPSLRWDETPGRAKGSETPGATPGSKIWDPTPSHTPAGAATPGRGDTPGHATPGHGGATSSARKNRWDETPKTERDTPGHGSGWAETPRTDRGGDSIGETPTPGASKRKSRWDETPASQMGGSTPVLTPGKTPIGTPAMNMATPTPGHIMSMTPEQLQAWRWEREIDERNRPLSDEELDAMFPEGYKVLPPPAGYVPIRTPARKLTATPTPLGGMTGFHMQTEDRTMKSVNDQPSGNLPFLKPDDIQYFDKLLVDVDESTLSPEEQKERKIMKLLLKIKNGTPPMRKAALRQITDKAREFGAGPLFNQILPLLMSPTLEDQERHLLVKVIDRILYKLDDLVRPYVHKILVVIEPLLIDEDYYARVEGREIISNLAKAAGLATMISTMRPDIDNMDEYVRNTTARAFAVVASALGIPSLLPFLKAVCKSKKSWQARHTGIKIVQQIAILMGCAILPHLRSLVEIIEHGLVDEQQKVRTISALAIAALAEAATPYGIESFDSVLKPLWKGIRQHRGKGLAAFLKAIGYLIPLMDAEYANYYTREVMLILIREFQSPDEEMKKIVLKVVKQCCGTDGVEANYIKTEILPPFFKHFWQHRMALDRRNYRQLVDTTVELANKVGAAEIISRIVDDLKDEAEQYRKMVMETIEKIMGNLGAADIDHKLEEQLIDGILYAFQEQTTEDSVMLNGFGTVVNALGKRVKPYLPQICGTVLWRLNNKSAKVRQQAADLISRTAVVMKTCQEEKLMGHLGVVLYEYLGEEYPEVLGSILGALKAIVNVIGMHKMTPPIKDLLPRLTPILKNRHEKVQENCIDLVGRIADRGAEYVSAREWMRICFELLELLKAHKKAIRRATVNTFGYIAKAIGPHDVLATLLNNLKVQERQNRVCTTVAIAIVAETCSPFTVLPALMNEYRVPELNVQNGVLKSLSFLFEYIGEMGKDYIYAVTPLLEDALMDRDLVHRQTASAVVQHMSLGVYGFGCEDSLNHLLNYVWPNVFETSPHVIQAVMGALEGLRVAIGPCRMLQYCLQGLFHPARKVRDVYWKIYNSIYIGSQDALIAHYPRIYNDDKNTYIRYELDYIL

tested on: GFP-tagged PRPF40A-Nter-MUT; test: SILAC GFP-immunoprecipitation with quantitative mass spectrometry, mutant construct; type: binding, human (Hela cells); conditions: quantitative MS, Hela cells, protein by gene name
Experimental: The PRPF40A N-terminal region (isoform 2, residues 1-221) was PCR-amplified from RPE1 cDNA (ATCC, Cat# CRL-4000) cDNA. The sequence was amplified in two fragments and both fragments were combined by overhang. All PCRs were carried out using Q5 Polymerase (NEB) according to manufacturer’s protocol. The resulting PRPF40A N-terminal region was cloned into a GFP-expressing pcDNA5 vector (see pcDNA5 GFP vector in ref. [28]) using Q5 Site-Directed Mutagenesis Kit (NEB). Nter-MUT, containing the PPVP/PALPP motifs changed to AAAA/AAAAA, was obtained by mutating the N-ter-WW12-containing plasmid with Q5 site-directed mutagenesis. Plasmids were transformed into DH5alpha chemically competent cells. After culturing, DNA isolation was performed with either ZymoPURE Plasmid Miniprep Kit (Zymo Research) or QIAGEN Plasmid Plus Midi Kit (Qiagen). The sequence was confirmed by Sanger Sequencing (GATC Eurofins). All used oligonucleotides are shown in Supplementary Table 6.
Hela cells (ATCC, Cat# CCL-2, RRID:CVCL_0030) were cultured in DMEM SILAC medium (Thermo Fisher) supplemented with 10% filtered FBS (Sigma-Aldrich) and 1% penicillin-streptomycin (Thermo-Fisher). The SILAC medium contains either light (Arg0, Lys0), medium (Arg6, Lys4) or heavy (Arg10, Lys8) isotopes (Cambridge Isotopes Laboratories). Hela cells were cultivated for 14 days in SILAC medium to assure sufficient isotope incorporation. For transfection, 7 × 10^6 Hela cells were seeded in a 15 cm culture dish in 20 ml of respective SILAC medium and grown for 24 h. The cells were then transfected with 20 µg of plasmids expressing either GFP (Control), GFP-tagged N-ext-WW12 or GFP-tagged-N-ext-WW12-MUT utilizing 64 µl FuGENE (Promega) (ratio 1:3.2), according to manufacturer’s protocol.
24 h post-transfection, cells were washed twice in ice-cold PBS and harvested in 1 ml mRIPA buffer (50 mM Tris, 150 mM NaCl, 1 mM EDTA, 1% NP-40, 0.1% Na-deoxycholate), supplemented with 2 µl Turbo-DNase (Thermo Fisher) and 3 µl protease-inhibitor cocktail cOmplete (Sigma-Aldrich). Cell lysates were cleared by centrifugation at 16,000 × g, 4 °C, 15 min and concentration was measured using Pierce BCA Protein Assay kit (Thermo Scientific). The expressed constructs were pulled down by incubating 2.5 mg of lysate with 20 μl GFP-nanobody agarose beads (ChromoTek, GTA-20) for 1 h at 4 °C under constant agitation. Subsequently, beads were washed three times with mRIPA buffer without supplements, then eluted in 1X NuPAGE LDS sample buffer (Thermo Scientific). To detach the proteins from the beads, the eluate was heated to 70 °C for 10 min To evaluate the success of the immunoprecipitation, input (1%) and IP samples were analyzed on a NuPAGE 4–12% Bis-Tris-Acrylamide gel (Thermo Fisher) using NuPAGE MOPS SDS running buffer (Thermo Fisher). Proteins were stained using Sypro Ruby protein gel stain (Thermo Fisher) according to manufacturer’s protocol.
The eluted proteins of three SILAC states (light, medium, heavy) were combined. The proteins were then reduced in DTT, alkylated in iodoacetamide, and purified using the SP3 paramagnetic bead approach. This was followed by overnight enzymatic digestion using trypsin (1 µg per sample) in 50 mM ammonium bicarbonate at 37 °C. The peptide solution was then purified by solid phase extraction in C18 StageTips[99].
Peptides were separated by online reverse phase liquid chromatography using the EASY-nLC 1000 system (Thermo Scientific) in a 30-cm analytical column (inner diameter: 75 μm; heated at 50 °C) packed in-house with ReproSil-Pur 120 C18-AQ 1.9-μm beads (Dr. Maisch GmbH). The gradient separation was performed through a 105-min non-linear gradient of 1.6–32% acetonitrile with 0.1% formic acid at a nanoflow rate of 225 nl/min. The eluted peptides were sprayed directly by electrospray ionization into a Q Exactive Plus Orbitrap mass spectrometer (Thermo Scientific). […]

First: B1
Second: B2
The “Immunoprecipitation enrichment MUT vs WT, log2 FC” value of the first is lower: 1.113 for the first, 1.321 for the second.

First: B3
Second: B4
The “Immunoprecipitation enrichment MUT vs WT, log2 FC” value of the first is higher: 1.57 for the first, 1.072 for the second.

In the case of B5, the “Immunoprecipitation enrichment MUT vs WT, log2 FC” value is reported as 0.9931.
